Article PMC5204125, “Primase is required for helicase activity and helicase alters the specificity of primase in the enteropathogen Clostridium difficile” (Open Biology, 2016)
One block for each molecule: values may come before it.

Legend:
[1] = molecular target: T1, CD3657 helicase with CD3654 helicase loader (Clostridioides difficile, UniProt Q181Q5+Q181Q8); test: analytical gel filtration (Superdex […]) with SDS-PAGE; conditions: 1 mM ATP; 2.21 uM each protein (monomer); ATP site inferred by the authors to be on CD3657 (Walker A), ATP binding itself not measured
T1 construct: gene dnaC; full-length open reading frames, non-tagged, expressed in E. coli BL21(DE3) from pET vectors; CD3657 monomer 49 kDa, CD3654 38 kDa; most probably 6:6 dodecamer with ATP (522 kDa); with Helicase loader ATPase (DnaI-like AAA+ protein)
T1 sequence (Q181Q8 1-442): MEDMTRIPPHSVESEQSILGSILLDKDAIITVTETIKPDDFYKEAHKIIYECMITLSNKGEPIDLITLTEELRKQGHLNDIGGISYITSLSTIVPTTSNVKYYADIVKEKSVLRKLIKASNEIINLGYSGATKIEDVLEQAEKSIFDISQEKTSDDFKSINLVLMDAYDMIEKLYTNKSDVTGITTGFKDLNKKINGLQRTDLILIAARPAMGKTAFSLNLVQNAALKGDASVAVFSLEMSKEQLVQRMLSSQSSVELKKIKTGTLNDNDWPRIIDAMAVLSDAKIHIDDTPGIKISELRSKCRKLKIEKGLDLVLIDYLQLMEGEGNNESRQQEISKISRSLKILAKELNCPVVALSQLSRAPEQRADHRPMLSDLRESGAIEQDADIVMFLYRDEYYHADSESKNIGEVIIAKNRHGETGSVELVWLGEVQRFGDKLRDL
T1 sequence (Q181Q5 1-330): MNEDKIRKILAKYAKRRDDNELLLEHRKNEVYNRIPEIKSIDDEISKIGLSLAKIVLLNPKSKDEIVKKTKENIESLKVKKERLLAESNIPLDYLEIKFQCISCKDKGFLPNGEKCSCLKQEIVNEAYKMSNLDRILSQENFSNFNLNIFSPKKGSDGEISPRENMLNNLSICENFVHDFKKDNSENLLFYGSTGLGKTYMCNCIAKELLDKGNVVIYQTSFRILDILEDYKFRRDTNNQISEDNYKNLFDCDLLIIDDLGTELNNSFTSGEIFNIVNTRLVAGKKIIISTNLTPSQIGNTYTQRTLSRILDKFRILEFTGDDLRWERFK

[2] = molecular target: C. difficile replicative helicase CD3657, purified non-tagged (Clostridium difficile)
[3] = molecular target: C. difficile replicative helicase CD3657, purified non-tagged (Clostridium difficile); remark: listed apart in the source
[4] = molecular target: C. difficile putative helicase loader CD3654, purified non-tagged (Clostridium difficile); test: SEC; analytical gel filtration, Superdex 200 10/300 GL, CD3657 and CD3654 equimolar 2.21 µM (monomer), with 1 mM ATP; fractions on SDS-PAGE
[5] = molecular target: C. difficile replicative helicase CD3657, purified non-tagged (Clostridium difficile); test: as above
[6] = molecular target: C. difficile replicative helicase CD3657, purified non-tagged (Clostridium difficile); test: SEC; analytical gel filtration, Superdex 200 10/300 GL, CD3657 and CD3654 equimolar 2.21 µM (monomer), without ATP; fractions on SDS-PAGE
[7] = molecular target: C. difficile replicative helicase CD3657, purified non-tagged (Clostridium difficile); test: SEC; analytical gel filtration of purified CD3657 alone, at 10 µM and above (monomer)
[8] = molecular target: C. difficile replicative helicase CD3657, purified non-tagged (Clostridium difficile); test: SEC; analytical gel filtration of CD3657 and CD3654 at high concentrations (approx. 10 µM); Figure S3
[9] = molecular target: CD3657 helicase, bacterial two-hybrid fusion (Clostridium difficile); test: two-hybrid; bacterial two-hybrid: Zif fusion and RNA polymerase ω subunit fusion, Zif-dependent lacZ reporter in E. coli KDZif1ΔZ, β-galactosidase activity, n = 3
[10] = molecular target: CD3654 putative helicase loader, bacterial two-hybrid fusion (Clostridium difficile); test: as above

Molecule: Nc1ncnc2c1ncn2[C@@H]1O[C@H](COP(=O)(O)OP(=O)(O)OP(=O)(O)O)[C@@H](O)[C@H]1O [ATP]
analytical gel filtration (Superdex 200) with SDS-PAGE [1]: CD3657 helicase and the loader CD3654 can form a complex in an ATP-dependent manner

RNA primer production by CD1454 on the 5′-d(CTA) 23-mer ssDNA template with against without CD3657, at [CD3657]6:[CD1454]3 [2]: 45.9 nmol
helicase assay: displacement of a radiolabelled oligonucleotide annealed to ssM13 by CD3657 with equimolar CD1454 against CD3657 alone, time course to 35 min [3]: 3.5 fold
Molecule: C. difficile primase CD1454, purified without an affinity tag (enzyme)

stoichiometry N (CD3657 per CD3654 (6:6)) [4]: 1
stoichiometry N [5]: 6
stoichiometry N [6]: 6
stoichiometry N [7]: 6
stoichiometry N [8]: 6
Molecule: C. difficile replicative helicase CD3657, purified non-tagged (enzyme)

fold β-galactosidase activity over the reporter strains with the individual plasmids [9]: 3 fold
fold β-galactosidase activity over the reporter strains with the individual plasmids [10]: 5 fold
Molecule: CD3657 helicase, bacterial two-hybrid fusion (enzyme)
